Experimental findings from patent US20240368283A1 are described below.

First the molecules themselves.
B1: TA132 (antibody, V domains shown)
VH: EVQLLESGGAFVQPGGSLRLSCAASGFTFSDYYMSWVRQAPGKGLEWVSVISNSGGSTYYTDSVKGRFTISRDNSKNTLYLQINSLRAEDTAVYYCTKDIGMTYFDYWGQGTLVTVSS
VL: QSVLTQPPSASGAPGQRVTISCSGSYSNIGNSYVSWYQQLPGTAPKLLIYLNSQRPSGVPDRFSGSKSGTSASLAISGLQSEDEADYYCAAWDDLNVWVFGGGTKLTVL
modifications: Fc SEQ 587, CL SEQ 416
B2: TA275 (antibody, V domains shown)
VH: QVTLKESGPGILQPSQTLSLTCSFSGFSLSTFGMGVGWIRQPSGKGLEWLAHIWWDDDKYYNPALKSRLTISKDTSKNQVFLKIANVDTADTATYYCARIPTRYWYFDVWGTGTTVTVSS
VL: QAVVTQESALTTSPGETVTLTCRSSTGAVTTSNYANWVQEKPDHLFTGLIGGTNNRAPGVPARFSGSLIGDKAALTITGAQTEDEAIYFCALWYSTHYVFGGGTKVTVL
modifications: Fc SEQ 587, CL SEQ 416
B3: TA289 (antibody, V domains shown)
VH: B2 VH with P101R, T102G, R103T, Y104W
VL: B2 VL with T96N, H97Q, Y98F, V99I, G102S
modifications: Fc SEQ 587, CL SEQ 416
B4: TA101 (antibody, V domains shown)
VH: DVQLVESGGGVARPGEFLRLSCAASGFTFRDYDMGWVRQAPGEGLEWVSSISVSGTTYYADSVKGRFTISRDNSENTLYLQMNSLTAEDTAVYYCGREDTLFHYWGLGTLVTVSS
VL: QSVLTQPPSASGTPGQRVTISCSGSTSNIGTRYVYWYQQLPGTAPKLLIYKNLQRPSGVPDRFSGSKSGTSASLAISGLQSEDEADYYCAAWDERLNGWVFGGGTKLTVL
modifications: Fc SEQ 587, CL SEQ 416
B5: TA104 (antibody, V domains shown)
VH: B4 VH with F17S
VL: B4 VL
modifications: Fc SEQ 587, CL SEQ 416
B6: TA102 (antibody, V domains shown)
VH: DVQLVESGGGVVRPGESLRLSCAASGFTFRNYDMTWVRQAPGEGLEWVATISGTDDTTYYADSVKGRATISRDNSNNTLYLRLFSLRAEDTAIYYCAREASNSFIDYWGLGTLVTVSS
VL: B4 VL with T26S, T31R, K51R, L53F, Q54E, A91S, R95S
modifications: Fc SEQ 587, CL SEQ 416

Positions count from the first letter of the chain named.

In the first assay the target is cyPD1 (cynomolgus monkey). In words: biosensor kinetics (BLI type); antibody captured on anti-human Fc biosensor, PD-1 in solution.
Broadly, the Kd is the equilibrium constant for the complex coming apart. For orientation: koff means the rate constant with which the complex falls apart. High values mean a short-lived complex, low ones a long-lived complex. In general, kon refers to a measure of how fast the partners come together. A high value points to fast association. As to B1, the Kd was found to be 92 nM, the koff amounted to 0.0137 s⁻¹ and the kon amounted to 149000 M⁻¹ s⁻¹.
The molecule B2 returned a Kd of 987 nM, a koff of 0.2 s⁻¹ and a kon of 200000 M⁻¹ s⁻¹.
Taken in the same sequence, the figures for B3 were 1390 nM, 2.1 s⁻¹ and 1.6e+06 M⁻¹ s⁻¹.
The molecule B4 yielded a Kd of 62.2 nM, a koff of 0.0076 s⁻¹ and an on-rate (kon) of 120000 M⁻¹ s⁻¹.
In turn, B5 came in with a Kd of 56.8 nM, an off-rate constant (koff) of 0.009 s⁻¹ and a kon of 160000 M⁻¹ s⁻¹.
For the molecule B6, the Kd was 7.2 nM, the koff worked out at 0.01 s⁻¹ and the kon stood at 1.4e+06 M⁻¹ s⁻¹.

A further assay deals with huPD1 (human) (UniProt Q15116). Described as above.
huPD1 (human), sequence (Q15116 25-170 limits assumed): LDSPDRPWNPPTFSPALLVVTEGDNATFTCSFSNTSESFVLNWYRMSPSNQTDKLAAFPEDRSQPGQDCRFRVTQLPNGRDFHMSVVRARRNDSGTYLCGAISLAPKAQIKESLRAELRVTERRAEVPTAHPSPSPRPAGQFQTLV
In turn, B1 showed a Kd of 5.72 nM, a koff of 0.000647 s⁻¹ and a kon of 113000 M⁻¹ s⁻¹.
The matching figures for B2: 600 nM, 0.2 s⁻¹ and 330000 M⁻¹ s⁻¹.
The matching figures for B3: 484 nM, 1.6 s⁻¹ and 3.4e+06 M⁻¹ s⁻¹.
Take B4: the dissociation constant (Kd) is 32.9 nM, the koff was determined as 0.022 s⁻¹ and the kon was determined as 680000 M⁻¹ s⁻¹.
The molecule B5 displayed a Kd of 33.1 nM and a koff of 0.024 s⁻¹.
B6: the Kd amounted to 24.8 nM, the off-rate (koff) stood at 0.014 s⁻¹ and the kon stood at 540000 M⁻¹ s⁻¹.
